Reference: publication PMC9352680, “A comprehensive thermodynamic model for RNA binding by the Saccharomyces cerevisiae Pumilio protein PUF4”

T1: PUF4 RNA-binding domain (Saccharomyces cerevisiae, UniProt P25339 537-888)
T1 sequence: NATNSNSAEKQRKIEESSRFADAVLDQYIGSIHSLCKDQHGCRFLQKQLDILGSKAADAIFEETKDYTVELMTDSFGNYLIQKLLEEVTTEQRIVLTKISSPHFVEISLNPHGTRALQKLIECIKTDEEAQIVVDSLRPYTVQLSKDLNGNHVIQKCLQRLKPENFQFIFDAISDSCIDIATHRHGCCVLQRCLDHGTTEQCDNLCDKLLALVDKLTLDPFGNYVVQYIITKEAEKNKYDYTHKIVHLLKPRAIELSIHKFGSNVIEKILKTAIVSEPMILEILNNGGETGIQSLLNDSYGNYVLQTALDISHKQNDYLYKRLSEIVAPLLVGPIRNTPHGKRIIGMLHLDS


Target: T1, PUF4 RNA-binding domain
Assay: Mg; RNA-MaP; 20 mM Na-HEPES pH 7.4, 30 mM KOAc, 0.75 mM MgCl2, 0.1% Tween-20, 5% glycerol, 0.1 mg/mL BSA, 2 mM DTT; 25 C; 0.0125-409.6 nM protein
Settings: tags: N-His6-TEV cleaved; C-SNAP kept, Cy3B-labelled; label: tethered on chip by stalled RNA polymerase

Row | Binder | Kd [nM]
1 | UCUCUUUAUAUAUAUUACUUCUCUU (ssRNA) [Id_ii_S1_P4E.3_K4.2_C4.2_[C-2T]_[T-1A]_H4.2_A4.1_F4.1_T4.2_[G10C]] | 20.6
2 | UCUCUUUGUAUAUAUUAAGUCUCUU (ssRNA) [Id_ii_S1_P4E.3_K4.2_C4.2_[C-2T]_[T-1G]_H4.2_A4.1_F4.1_T4.2_[G10A]_[T11G]] | 8.46
3 | UCUCUUUUUAUAUAUUAUGUCUCUU (ssRNA) [Id_ii_S1_P4E.3_K4.2_C4.2_[C-2T]_H4.2_A4.1_F4.1_T4.2_[G10T]_[T11G]] | 17.9
4 | UCUCUUUCUAUAUAUUAAUUCUCUU (ssRNA) [Id_ii_S1_P4E.3_K4.2_C4.2_[C-2T]_[T-1C]_H4.2_A4.1_F4.1_T4.2_[G10A]] | 39.7
5 | UCUCUUUGUGUGUUAUCUCUU (ssRNA) [Ib_S1_P4E.1_K4.1_C4.1_H4.1_[A4G]_A4.1_[A6G]_F4.1_T4.1] | 43.8
6 | UCUCUUGUUAUAUAUUAUCUCUCUU (ssRNA) [Id_ii_S1_P4E.3_K4.2_C4.2_[C-2G]_H4.2_A4.1_F4.1_T4.2_[G10T]_[T11C]] | 12.5
7 | UCUCUUUUUAUAUAUUACGUCUCUU (ssRNA) [Id_ii_S1_P4E.3_K4.2_C4.2_[C-2T]_H4.2_A4.1_F4.1_T4.2_[G10C]_[T11G]] | 30.1
8 | UCUCUUUAUAUAUAUUAGCUCUCUU (ssRNA) [Id_ii_S1_P4E.3_K4.2_C4.2_[C-2T]_[T-1A]_H4.2_A4.1_F4.1_T4.2_[T11C]] | 12.7
9 | UCUCUUGCUAUAUAUUAAAUCUCUU (ssRNA) [Id_ii_S1_P4E.3_K4.2_C4.2_[C-2G]_[T-1C]_H4.2_A4.1_F4.1_T4.2_[G10A]_[T11A]] | 126
10 | UCUCUUUGUAUAUAUUAGUUCUCUU (ssRNA) [Id_ii_S1_P4E.3_K4.2_C4.2_[C-2T]_[T-1G]_H4.2_A4.1_F4.1_T4.2] | 3.67
11 | UCUCUUUCUAUAUAUUAAGUCUCUU (ssRNA) [Id_ii_S1_P4E.3_K4.2_C4.2_[C-2T]_[T-1C]_H4.2_A4.1_F4.1_T4.2_[G10A]_[T11G]] | 130
12 | UCUCUUUUUAUAUAUUAUAUCUCUU (ssRNA) [Id_ii_S1_P4E.3_K4.2_C4.2_[C-2T]_H4.2_A4.1_F4.1_T4.2_[G10T]_[T11A]] | 22.2
13 | UCUCUUUCUAUAUAUUACAUCUCUU (ssRNA) [Id_ii_S1_P4E.3_K4.2_C4.2_[C-2T]_[T-1C]_H4.2_A4.1_F4.1_T4.2_[G10C]_[T11A]] | 23.1
14 | UCUCUUACUAUAUAUUACUUCUCUU (ssRNA) [Id_ii_S1_P4E.3_K4.2_C4.2_[C-2A]_[T-1C]_H4.2_A4.1_F4.1_T4.2_[G10C]] | 26.2
15 | UCUCUUUAUAUAUAUUAACUCUCUU (ssRNA) [Id_ii_S1_P4E.3_K4.2_C4.2_[C-2T]_[T-1A]_H4.2_A4.1_F4.1_T4.2_[G10A]_[T11C]] | 15.7
16 | UCUCUUUGUUCAUUAUCUCUU (ssRNA) [Ib_S1_P4E.1_K4.1_C4.1_H4.1_[A4T]_A4.1_[T5C]_F4.1_T4.1] | 21.1

Row | Binder | Kd [nM]
17 | UCUCUUACUAUAUAUUAUCUCUCUU (ssRNA) [Id_ii_S1_P4E.3_K4.2_C4.2_[C-2A]_[T-1C]_H4.2_A4.1_F4.1_T4.2_[G10T]_[T11C]] | 29.3
18 | UCUCUUGUUAUAUAUUAAAUCUCUU (ssRNA) [Id_ii_S1_P4E.3_K4.2_C4.2_[C-2G]_H4.2_A4.1_F4.1_T4.2_[G10A]_[T11A]] | 26.8
19 | UCUCUUUAUAUAUAUUAAAUCUCUU (ssRNA) [Id_ii_S1_P4E.3_K4.2_C4.2_[C-2T]_[T-1A]_H4.2_A4.1_F4.1_T4.2_[G10A]_[T11A]] | 38.1
20 | UCUCUUGUUAUAUAUUAUUUCUCUU (ssRNA) [Id_ii_S1_P4E.3_K4.2_C4.2_[C-2G]_H4.2_A4.1_F4.1_T4.2_[G10T]] | 22.3
21 | UCUCUUUUUAUAUAUUAAAUCUCUU (ssRNA) [Id_ii_S1_P4E.3_K4.2_C4.2_[C-2T]_H4.2_A4.1_F4.1_T4.2_[G10A]_[T11A]] | 55.1
22 | UCUCUUUAUAUAUAUUACGUCUCUU (ssRNA) [Id_ii_S1_P4E.3_K4.2_C4.2_[C-2T]_[T-1A]_H4.2_A4.1_F4.1_T4.2_[G10C]_[T11G]] | 21.9
23 | UCUCUUGUUAUAUAUUAAUUCUCUU (ssRNA) [Id_ii_S1_P4E.3_K4.2_C4.2_[C-2G]_H4.2_A4.1_F4.1_T4.2_[G10A]] | 21
24 | UCUCUUAGUAUAUAUUAUCUCUCUU (ssRNA) [Id_ii_S1_P4E.3_K4.2_C4.2_[C-2A]_[T-1G]_H4.2_A4.1_F4.1_T4.2_[G10T]_[T11C]] | 43
25 | UCUCUUUGUAUAUAUUAGGUCUCUU (ssRNA) [Id_ii_S1_P4E.3_K4.2_C4.2_[C-2T]_[T-1G]_H4.2_A4.1_F4.1_T4.2_[T11G]] | 7.71
26 | UCUCUUUCUAUAUAUUAAAUCUCUU (ssRNA) [Id_ii_S1_P4E.3_K4.2_C4.2_[C-2T]_[T-1C]_H4.2_A4.1_F4.1_T4.2_[G10A]_[T11A]] | 61.2
27 | UCUCUUACUAUAUAUUACGUCUCUU (ssRNA) [Id_ii_S1_P4E.3_K4.2_C4.2_[C-2A]_[T-1C]_H4.2_A4.1_F4.1_T4.2_[G10C]_[T11G]] | 51.9
28 | UCUCUUUCUAUAUAUUAUCUCUCUU (ssRNA) [Id_ii_S1_P4E.3_K4.2_C4.2_[C-2T]_[T-1C]_H4.2_A4.1_F4.1_T4.2_[G10T]_[T11C]] | 17.2
29 | UCUCUUUGUAUUAGUAUCUCUU (ssRNA) [Ia_S1_P5E.1_K5.1_C5.1_H5.1_A5.1_F5.1_[T8G]_T5.1] | 18.2
30 | UCUCUUGUUAUAUAUUAUGUCUCUU (ssRNA) [Id_ii_S1_P4E.3_K4.2_C4.2_[C-2G]_H4.2_A4.1_F4.1_T4.2_[G10T]_[T11G]] | 15.3
31 | UCUCUUUUUAUAUAUUAGGUCUCUU (ssRNA) [Id_ii_S1_P4E.3_K4.2_C4.2_[C-2T]_H4.2_A4.1_F4.1_T4.2_[T11G]] | 22.6
